This is an account of results in IntAct's records for PubMed 21063388.

B1: Trinucleotide repeat-containing gene 6C protein (Homo sapiens), Q9HCJ0-1 (parent)
chain: MATGSAQGNFTGHTKKTNGNNGTNGALVQSPSNQSALGAGGANSNGSAARVWGVATGSSSGLAHCSVSGGDGKMDTMIGDGRSQNCWGASNSNAGINLNLNPNANPAAWPVLGHEGTVATGNPSSICSPVSAIGQNMGNQNGNPTGTLGAWGNLLPQESTEPQTSTSQNVSFSAQPQNLNTDGPNNTNPMNSSPNPINAMQTNGLPNWGMAVGMGAIIPPHLQGLPGANGSSVSQVSGGSAEGISNSVWGLSPGNPATGNSNSGFSQGNGDTVNSALSAKQNGSSSAVQKEGSGGNAWDSGPPAGPGILAWGRGSGNNGVGNIHSGAWGHPSRSTSNGVNGEWGKPPNQHSNSDINGKGSTGWESPSVTSQNPTVQPGGEHMNSWAKAASSGTTASEGSSDGSGNHNEGSTGREGTGEGRRRDKGIIDQGHIQLPRNDLDPRVLSNTGWGQTPVKQNTAWEFEESPRSERKNDNGTEAWGCAATQASNSGGKNDGSIMNSTNTSSVSGWVNAPPAAVPANTGWGDSNNKAPSGPGVWGDSISSTAVSTAAAAKSGHAWSGAANQEDKSPTWGEPPKPKSQHWGDGQRSNPAWSAGGGDWADSSSVLGHLGDGKKNGSGWDADSNRSGSGWNDTTRSGNSGWGNSTNTKANPGTNWGETLKPGPQQNWASKPQDNNVSNWGGAASVKQTGTGWIGGPVPVKQKDSSEATGWEEPSPPSIRRKMEIDDGTSAWGDPSNYNNKTVNMWDRNNPVIQSSTTTNTTTTTTTTTSNTTHRVETPPPHQAGTQLNRSPLLGPGRKVSSGWGEMPNVHSKTENSWGEPSSPSTLVDNGTAAWGKPPSSGSGWGDHPAEPPVAFGRAGAPVAASALCKPASKSMQEGWGSGGDEMNLSTSQWEDEEGDVWNNAASQESTSSCSSWGNAPKKGLQKGMKTSGKQDEAWIMSRLIKQLTDMGFPREPAEEALKSNNMNLDQAMSALLEKKVDVDKRGLGVTDHNGMAAKPLGCRPPISKESSVDRPTFLDKDGGLVEEPTPSPFLPSPSLKLPLSHSALPSQALGGIASGLGMQNLNSSRQIPSGNLGMFGNSGAAQARTMQQPPQPPVQPLNSSQPSLRAQVPQFLSPQVQAQLLQFAAKNIGLNPALLTSPINPQHMTMLNQLYQLQLAYQRLQIQQQMLQAQRNVSGSMRQQEQQVARTITNLQQQIQQHQRQLAQALLVKQPPPPPPPPHLSLHPSAGKSAMDSFPSHPQTPGLPDLQTKEQQSSPNTFAPYPLAGLNPNMNVNSMDMTGGLSVKDPSQSQSRLPQWTHPNSMDNLPSAASPLEQNPSKHGAIPGGLSIGPPGKSSIDDSYGRYDLIQNSESPASPPVAVPHSWSRAKSDSDKISNGSSINWPPEFHPGVPWKGLQNIDPENDPDVTPGSVPTGPTINTTIQDVNRYLLKSGGKLSDIKSTWSSGPTSHTQASLSHELWKVPRNSTAPTRPPPGLTNPKPSSTWGASPLGWTSSYSSGSAWSTDTSGRTSSWLVLRNLTPQIDGSTLRTLCLQHGPLITFHLNLTQGNAVVRYSSKEEAAKAQKSLHMCVLGNTTILAEFAGEEEVNRFLAQGQALPPTSSWQSSSASSQPRLSAAGSSHGLVRSDAGHWNAPCLGGKGSSELLWGGVPQYSSSLWGPPSADDSRVIGSPTPLTTLLPGDLLSGESL
B2: Protein Gawky (Drosophila melanogaster (Fruit fly)), Q8SY33 (parent)
chain: MREALFSQDGWGCQHVNQDTNWEVPSSPEPANKDAPGPPMWKPSINNGTDLWESNLRNGGQPAAQQVPKPSWGHTPSSNLGGTWGEDDDGADSSSVWTGGAVSNAGSGAAVGVNQAGVNVGPGGVVSSGGPQWGQGVVGVGLGSTGGNGSSNITGSSGVATGSSGNSSNAGNGWGDPREIRPLGVGGSMDIRNVEHRGGNGSGATSSDPRDIRMIDPRDPIRGDPRGISGRLNGTSEMWGHHPQMSHNQLQGINKMVGQSVATASTSVGTSGSGIGPGGPGPSTVSGNIPTQWGPAQPVSVGVSGPKDMSKQISGWEEPSPPPQRRSIPNYDDGTSLWGQQTRVPAASGHWKDMTDSIGRSSHLMRGQSQTGGIGIAGVGNSNVPVGANPSNPISSVVGPQARIPSVGGVQHKPDGGAMWVHSGNVGGRNNVAAVTTWGDDTHSVNVGAPSSGSVSSNNWVDDKSNSTLAQNSWSDPAPVGVSWGNKQSKPPSNSASSGWSTAAGVVDGVDLGSEWNTHGGIIGKSQQQQKLAGLNVGMVNVINAEIIKQSKQYRILVENGFKKEDVERALVIANMNIEEAADMLRANSSLSMDGWRRHDESLGSYADHNSSTSSGGFAGRYPVNSGQPSMSFPHNNLMNNMGGTAVTGGNNNTNMTALQVQKYLNQGQHGVAVGPQAVGNSSAVSVGFGQNTSNAAVAGAASVNIAANTNNQPSGQQIRMLGQQIQLAIHSGFISSQILTQPLTQTTLNLLNQLLSNIKHLQAAQQSLTRGGNVNPMAVNVAISKYKQQIQNLQNQINAQQAVYVKQQNMQPTSQQQQPQQQQLPSVHLSNSGNDYLRGHDAINNLQSNFSELNINKPSGYQGASNQQSRLNQWKLPVLDKEINSDSTEFSRAPGATKQNLTANTSNINSLGLQNDSTWSTGRSIGDGWPDPSSDNENKDWSVAQPTSAATAYTDLVQEFEPGKPWKGSQIKSIEDDPSITPGSVARSPLSINSTPKDADIFANTGKNSPTDLPPLSLSSSTWSFNPNQNYPSHSWSDNSQQCTATSELWTSPLNKSSSRGPPPGLTANSNKSANSNASTPTTITGGANGWLQPRSGGVQTTNTNWTGGNTTWGSSWLLLKNLTAQIDGPTLRTLCMQHGPLVSFHPYLNQGIALCKYTTREEANKAQMALNNCVLANTTIFAESPSENEVQSIMQHLPQTPSSTSSSGTSGGNVGGVGTSANNANSGSAACLSGNNSGNGNGSASGAGSGNNGNSSCNNSAAGGGSSSNNTITTVANSNLVGSSGSVSNSSGVTANSSTVSVVSCTASGNSINGAGTANSSGSKSSANNLASGQSSASNLTNSTNSTWRQTSQNQALQSQSRPSGREADFDYISLVYSIVDD
B3: Trinucleotide repeat-containing gene 6A protein (Homo sapiens), Q8NDV7 (parent)
chain: MRELEAKATKDVERNLSRDLVQEEEQLMEEKKKKKDDKKKKEAAQKKATEQKIKVPEQIKPSVSQPQPANSNNGTSTATSTNNNAKRATANNQQPQQQQQQQQPQQQQPQQQPQPQPQQQQPQQQPQALPRYPREVPPRFRHQEHKQLLKRGQHFPVIAANLGSAVKVLNSQSESSALTNQQPQNNGEVQNSKNQSDINHSTSGSHYENSQRGPVSSTSDSSTNCKNAVVSDLSEKEAWPSAPGSDPELASECMDADSASSSESERNITIMASGNTGGEKDGLRNSTGLGSQNKFVVGSSSNNVGHGSSTGPWGFSHGAIISTCQVSVDAPESKSESSNNRMNAWGTVSSSSNGGLNPSTLNSASNHGAWPVLENNGLALKGPVGSGSSGINIQCSTIGQMPNNQSINSKVSGGSTHGTWGSLQETCESEVSGTQKVSFSGQPQNITTEMTGPNNTTNFMTSSLPNSGSVQNNELPSSNTGAWRVSTMNHPQMQAPSGMNGTSLSHLSNGESKSGGSYGTTWGAYGSNYSGDKCSGPNGQANGDTVNATLMQPGVNGPMGTNFQVNTNKGGGVWESGAANSQSTSWGSGNGANSGGSRRGWGTPAQNTGTNLPSVEWNKLPSNQHSNDSANGNGKTFTNGWKSTEEEDQGSATSQTNEQSSVWAKTGGTVESDGSTESTGRLEEKGTGESQSRDRRKIDQHTLLQSIVNRTDLDPRVLSNSGWGQTPIKQNTAWDTETSPRGERKTDNGTEAWGSSATQTFNSGACIDKTSPNGNDTSSVSGWGDPKPALRWGDSKGSNCQGGWEDDSAATGMVKSNQWGNCKEEKAAWNDSQKNKQGWGDGQKSSQGWSVSASDNWGETSRNNHWGEANKKSSSGGSDSDRSVSGWNELGKTSSFTWGNNINPNNSSGWDESSKPTPSQGWGDPPKSNQSLGWGDSSKPVSSPDWNKQQDIVGSWGIPPATGKPPGTGWLGGPIPAPAKEEEPTGWEEPSPESIRRKMEIDDGTSAWGDPSKYNYKNVNMWNKNVPNGNSRSDQQAQVHQLLTPASAISNKEASSGSGWGEPWGEPSTPATTVDNGTSAWGKPIDSGPSWGEPIAAASSTSTWGSSSVGPQALSKSGPKSMQDGWCGDDMPLPGNRPTGWEEEEDVEIGMWNSNSSQELNSSLNWPPYTKKMSSKGLSGKKRRRERGMMKGGNKQEEAWINPFVKQFSNISFSRDSPEENVQSNKMDLSGGMLQDKRMEIDKHSLNIGDYNRTVGKGPGSRPQISKESSMERNPYFDKDGIVADESQNMQFMSSQSMKLPPSNSALPNQALGSIAGLGMQNLNSVRQNGNPSMFGVGNTAAQPRGMQQPPAQPLSSSQPNLRAQVPPPLLSPQVPVSLLKYAPNNGGLNPLFGPQQVAMLNQLSQLNQLSQISQLQRLLAQQQRAQSQRSVPSGNRPQQDQQGRPLSVQQQMMQQSRQLDPNLLVKQQTPPSQQQPLHQPAMKSFLDNVMPHTTPELQKGPSPINAFSNFPIGLNSNLNVNMDMNSIKEPQSRLRKWTTVDSISVNTSLDQNSSKHGAISSGFRLEESPFVPYDFMNSSTSPASPPGSIGDGWPRAKSPNGSSSVNWPPEFRPGEPWKGYPNIDPETDPYVTPGSVINNLSINTVREVDHLRDRNSGSSSSLNTTLPSTSAWSSIRASNYNVPLSSTAQSTSARNSDSKLTWSPGSVTNTSLAHELWKVPLPPKNITAPSRPPPGLTGQKPPLSTWDNSPLRIGGGWGNSDARYTPGSSWGESSSGRITNWLVLKNLTPQIDGSTLRTLCMQHGPLITFHLNLPHGNALVRYSSKEEVVKAQKSLHMCVLGNTTILAEFASEEEISRFFAQSQSLTPSPGWQSLGSSQSRLGSLDCSHSFSSRTDLNHWNGAGLSGTNCGDLHGTSLWGTPHYSTSLWGPPSSSDPRGISSPSPINAFLSVDHLGGGGESM

In one assay the parent is B1. The following applies: with pabp_drome pAbp.
Target sequence in this assay (P21187 whole entry): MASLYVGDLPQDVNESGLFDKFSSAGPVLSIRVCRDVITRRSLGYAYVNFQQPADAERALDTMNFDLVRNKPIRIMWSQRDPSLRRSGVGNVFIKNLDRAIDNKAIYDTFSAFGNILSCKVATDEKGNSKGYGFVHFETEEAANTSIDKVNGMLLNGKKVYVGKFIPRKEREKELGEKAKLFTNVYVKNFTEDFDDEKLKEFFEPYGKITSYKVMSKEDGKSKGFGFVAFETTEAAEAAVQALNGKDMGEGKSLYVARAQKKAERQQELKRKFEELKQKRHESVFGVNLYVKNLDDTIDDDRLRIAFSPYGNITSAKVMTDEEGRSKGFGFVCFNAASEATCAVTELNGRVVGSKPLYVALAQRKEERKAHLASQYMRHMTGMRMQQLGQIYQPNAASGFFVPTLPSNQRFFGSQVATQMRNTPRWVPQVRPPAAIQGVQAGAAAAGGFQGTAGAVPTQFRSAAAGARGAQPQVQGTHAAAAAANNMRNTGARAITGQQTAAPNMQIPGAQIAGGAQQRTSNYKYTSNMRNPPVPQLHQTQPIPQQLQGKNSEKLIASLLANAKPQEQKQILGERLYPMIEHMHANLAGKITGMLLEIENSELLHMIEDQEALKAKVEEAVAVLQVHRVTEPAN
As for F1389A, the “effect of a mutation on the interaction” value is given as “disrupting interaction”.

Another assay covers variants of B1. The following applies: with pabp1_human PABPC1, P11940.
Target sequence in this assay (P11940 whole entry): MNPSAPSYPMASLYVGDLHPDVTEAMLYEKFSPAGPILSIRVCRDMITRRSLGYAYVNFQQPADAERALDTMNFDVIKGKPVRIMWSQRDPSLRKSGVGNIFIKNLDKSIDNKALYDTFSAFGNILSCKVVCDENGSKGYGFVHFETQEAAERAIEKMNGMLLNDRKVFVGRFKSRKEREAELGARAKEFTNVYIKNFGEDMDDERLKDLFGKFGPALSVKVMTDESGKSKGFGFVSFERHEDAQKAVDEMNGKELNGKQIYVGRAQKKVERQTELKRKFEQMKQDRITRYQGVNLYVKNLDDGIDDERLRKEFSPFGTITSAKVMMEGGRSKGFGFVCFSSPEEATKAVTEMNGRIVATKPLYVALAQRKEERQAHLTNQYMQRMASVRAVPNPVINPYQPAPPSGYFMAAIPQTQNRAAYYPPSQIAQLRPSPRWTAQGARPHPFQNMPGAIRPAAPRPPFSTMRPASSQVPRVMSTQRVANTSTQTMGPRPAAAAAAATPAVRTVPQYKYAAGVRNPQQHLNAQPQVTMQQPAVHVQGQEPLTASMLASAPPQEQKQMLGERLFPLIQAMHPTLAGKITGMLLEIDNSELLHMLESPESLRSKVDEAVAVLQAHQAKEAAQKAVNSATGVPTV
With F1389A, the “effect of a mutation on the interaction” value is recorded as “disrupting interaction”.

Variants of B2 are the subject of another assay. Particulars: with pabp_drome pAbp.
Target sequence in this assay (P21187 whole entry): as the sequence (P21187 whole entry) above
V958P: the “effect of a mutation on the interaction” value was “increasing interaction”.

As to Q959P, the “effect of a mutation on the interaction” value is reported as “increasing interaction”.

The next assay covers variants of B2. Particulars: with pabp_drome pAbp. The source holds these as a separate data set.
Target sequence in this assay (P21187 whole entry): as above
Regarding E962Q, the “effect of a mutation on the interaction” value is “increasing interaction”.

The variants in a further assay derive from B2. The following applies: with pabp_drome pAbp. The source holds these as a separate data set.
Target sequence in this assay (P21187 whole entry): as above
Regarding F961A, the “effect of a mutation on the interaction” value is “disrupting interaction”.

Another assay covers variants of B3. The following applies: with pabp_drome pAbp.
Target sequence in this assay (P21187 whole entry): as above
With F1612A, the “effect of a mutation on the interaction” value was “disrupting interaction”.

The variants in the next assay derive from B3. The following applies: with pabp1_human PABPC1, P11940.
Target sequence in this assay (P11940 whole entry): as the sequence (P11940 whole entry) above
On to F1612A, for which the “effect of a mutation on the interaction” value was “disrupting interaction”.
